Measurements reported in US6635743.

T1: TNFRI (UniProt P19438 30-211, limits assumed)
T1 construct: also called TNFR1
T1 sequence (looked up): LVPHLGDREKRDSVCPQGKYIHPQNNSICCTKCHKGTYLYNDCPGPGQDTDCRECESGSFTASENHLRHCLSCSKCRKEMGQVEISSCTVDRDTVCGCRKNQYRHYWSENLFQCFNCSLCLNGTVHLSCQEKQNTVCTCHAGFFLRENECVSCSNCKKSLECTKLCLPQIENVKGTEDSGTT

T2: Fas (UniProt P25445 26-173, limits assumed)
T2 construct: also called CD95; APO-1
T2 sequence (looked up): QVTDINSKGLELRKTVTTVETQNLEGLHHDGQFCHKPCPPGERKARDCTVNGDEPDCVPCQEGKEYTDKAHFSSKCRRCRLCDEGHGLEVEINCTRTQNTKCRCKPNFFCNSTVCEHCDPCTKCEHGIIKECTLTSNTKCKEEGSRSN

T3: DR3 (UniProt Q93038 25-199, limits assumed)
T3 construct: also called TRAMP; APO-3
T3 sequence (looked up): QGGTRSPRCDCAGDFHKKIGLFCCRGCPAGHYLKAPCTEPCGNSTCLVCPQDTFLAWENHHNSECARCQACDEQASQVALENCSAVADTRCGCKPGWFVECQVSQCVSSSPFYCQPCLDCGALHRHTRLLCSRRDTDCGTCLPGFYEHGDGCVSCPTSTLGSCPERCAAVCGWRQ

T4: TR2 on the surface of MDA-MB-231 and HT-29 cells and of T cells (human, UniProt Q92956 39-283)
T4 construct: whole, on cells; The tumour cells carry both LTβR and TR2; also called HVEM; ATAR
T4 sequence (looked up): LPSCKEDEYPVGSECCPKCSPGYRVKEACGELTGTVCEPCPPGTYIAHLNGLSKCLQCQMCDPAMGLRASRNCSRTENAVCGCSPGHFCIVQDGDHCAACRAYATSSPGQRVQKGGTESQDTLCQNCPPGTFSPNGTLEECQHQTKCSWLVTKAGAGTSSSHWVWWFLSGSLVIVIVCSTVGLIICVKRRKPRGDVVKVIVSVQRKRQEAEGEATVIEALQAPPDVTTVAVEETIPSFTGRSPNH

T5: DR4 (UniProt O00220 24-239, limits assumed)
T5 construct: also called TRAIL-R1; APO-2
T5 sequence (looked up): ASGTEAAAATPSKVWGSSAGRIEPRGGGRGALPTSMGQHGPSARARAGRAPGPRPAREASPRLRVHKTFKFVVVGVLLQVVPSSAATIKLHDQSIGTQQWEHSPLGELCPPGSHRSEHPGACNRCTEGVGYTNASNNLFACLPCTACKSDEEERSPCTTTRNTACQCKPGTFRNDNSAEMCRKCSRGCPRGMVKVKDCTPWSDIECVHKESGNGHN

T6: TR6-(His), recombinant TR6 protein with hexa-histidine at the C-terminus (human, UniProt O95407 30-300)
T6 construct: also called DcR3; TR6 (DcR3)
T6 sequence: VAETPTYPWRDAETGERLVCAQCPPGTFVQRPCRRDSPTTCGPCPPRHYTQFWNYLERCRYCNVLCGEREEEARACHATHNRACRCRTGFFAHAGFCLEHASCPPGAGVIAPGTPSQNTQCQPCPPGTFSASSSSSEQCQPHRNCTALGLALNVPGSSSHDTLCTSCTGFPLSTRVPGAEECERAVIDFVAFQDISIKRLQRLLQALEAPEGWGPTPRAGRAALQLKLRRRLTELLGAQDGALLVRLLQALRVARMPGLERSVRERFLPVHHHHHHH

B1: natural processed form of AIM II purified from conditioned media of MCA-38 cells transfected with full length AIM II cDNA (residues 83-240) (ligand)
chain: LIQERRSHEVNPAAHLTGANSSLTGSGGPLLWETQLGLAFLRGLSYHDGALVVTKAGYYYIYSKVQLGGVGCPLGLASTITHGLYKRTPRYPEELELLVSQQSPCGRATSSSRVWWDSSFLGGVVHLEAGEEVVVRVLDERLVRLRDGTRSYFGAFMV
notes: apparent mass about 21 kDa, said to be consistent with glycosylation; also called MCA-38 AIM II; AIM II (aa 83-240)
B2: HVEM/TR2-Fc fusion protein (Fc fusion, UniProt Q92956 39-202, looked up)
chain: LPSCKEDEYPVGSECCPKCSPGYRVKEACGELTGTVCEPCPPGTYIAHLNGLSKCLQCQMCDPAMGLRASRNCSRTENAVCGCSPGHFCIVQDGDHCAACRAYATSSPGQRVQKGGTESQDTLCQNCPPGTFSPNGTLEECQHQTKCSWLVTKAGAGTSSSHWV
notes: not shown: Fc portion; detected with anti-human IgG
B3: Flag-tagged soluble AIM II protein (sAIM II), amino acids 74-240 of AIM II (ligand)
chain: DGPAGSWEQLIQERRSHEVNPAAHLTGANSSLTGSGGPLLWETQLGLAFLRGLSYHDGALVVTKAGYYYIYSKVQLGGVGCPLGLASTITHGLYKRTPRYPEELELLVSQQSPCGRATSSSRVWWDSSFLGGVVHLEAGEEVVVRVLDERLVRLRDGTRSYFGAFMV
notes: also called sLIGHT; AIM II-Flag; not shown: N-terminal FLAG peptide tag from vector pFLAG.CMV-1 (behind the preprotrypsin signal peptide)
B4: full-length AIM II (LIGHT) expressed on the cell surface (ligand)
chain: MEESVVRPSVFVVDGQTDIPFTRLGRSHRRQSCSVARVGLGLLLLLMGAGLAVQGWFLLQLHWRLGEMVTRLPDGPAGSWEQLIQERRSHEVNPAAHLTGANSSLTGSGGPLLWETQLGLAFLRGLSYHDGALVVTKAGYYYIYSKVQLGGVGCPLGLASTITHGLYKRTPRYPEELELLVSQQSPCGRATSSSRVWWDSSFLGGVVHLEAGEEVVVRVLDERLVRLRDGTRSYFGAFMV
B5: lymphotoxin beta receptor (LTβR)-Fc fusion protein (Fc fusion, human, UniProt P36941 31-227, looked up)
chain: QAVPPYASENQTCRDQEKEYYEPQHRICCSRCPPGTYVSAKCSRIRDTVCATCAENSYNEHWNYLTICQLCRPCDPVMGLEEIAPCTSKRKTQCRCQPGMFCAAWALECTHCELLSDCPPGTEAELKDEVGKGNNHCVPCKAGHFQNTSSPSARCQPHTRCENQGLVEAAPGTAQSDTTCKNPLEPLPPEMSGTMLM
notes: extracellular domain; also called sLTβR-Fc; lymphotoxin-β receptor-Fc fusion protein; not shown: IgG1 Fc from vector pUC19-IgG1-Fc

Columns and labels:
[1] = biological target: B5; assay: LTβR-Fc affinity column, eluate tested on LTβR BIAcore chip; band of about 21 kDa specifically bound to the column
Description: Conditioned media from the stable transfectants, CHO11 or MCA-38 cells, were filtered, centrifuged at 10,000×g and then passed over an MCIF-Fc affinity column (control column) followed by the LTβR-Fc affinity column (0.2 mL bed volume). The columns were washed with several bed column volumes HEPES buffered saline containing 0.005% Surfactant P-20. Bound protein was eluted with 10 mM HCl (3×0.5 ml fractions) and immediately neutralized with TRIS buffer. The fractions eluted from the LTβR column retained binding to LTβR BIAcore chip, whereas, fractions eluted from the control MCIF-Fc column were negative for binding. The eluted fractions were dried in Spedvac then resuspended in 20 μl water. An aliquot of the eluted protein was analyzed by reducing SDS-PAGE gels and detected by silver staining. A band of approximately ~25 kDa and ~21 kDa was detected specifically bound to the LTβR column from CHO-11 and MCA-38 cell lines. The remaining eluted material was subject to SDS-PAGE and blotted onto PVDF membrane for N-terminal sequence analysis.

[2] = biological target: B4; assay: flow cytometry on AIM II (LIGHT)-transfected HEK 293 EBNA cells, FITC anti-human IgG
Description: (§1) After selection with Hygromycin B, cells were harvested with 1 mM EDTA in PBS and incubated with TR6-(His), HVEM/TR2-Fc, or LTβR-Fc for 20 minutes on ice. For detecting Fc-fusion protein, cells were stained with FITC-conjugated goat anti-human IgG. To detect TR6 binding, cells were stained with anti-poly(His)_6 and FITC conjugated goat anti-mouse IgG consecutively. The cells were analyzed by FACScan (Becton Dickinson).
(§2) These bindings indicate that TR6 can bind to both soluble and membrane-bound forms of AIM II (LIGHT).

[3] = biological target: B2; assay: FACS competition, TR2-Fc at 10 µg/ml preincubated with sAIM II
Description: Cells were collected by trypsinization or aspiration, and centrifuged at 1500–2000 rpm for 5 min. The cell pellets were resuspended and washed in 5 ml ice-cold PBS twice. And then, the cells were incubated with Flag-tagged AIM II protein or Abs at 10 μg/ml in the binding buffer (HBSS containing 10% BSA, 20 mM HEPES, pH 7.2, 0.02% NaN₃, and 25 μg/ml normal rat Ig) for 30 min at 4° C. Cells were then washed and stained with phycoerythrin (PE) conjugated to goat anti-mouse IgG at 20 μg/ml as described. To compete for cell surface binding, soluble LTβR-Fc fusion protein, TR2-Fc at 10 μg/ml was preincubated with AIM II for 30 min before adding to cells. Fluorescence was analyzed by a FACscan flow cytometer (Becton Dickinson, Mountain View, Calif.).

[4] = biological target: B5; assay: BIAcore, LTβR-Fc immobilized by amine coupling, CHO conditioned serum-free media
Description: (§3) CHO cells were transfected with either an AIM II-Flag tag expression vector or an BAP-Flag (negative control). Three days after transfection, AIM II expression was determined using the BIAcore instrument (BIAcore, Inc.) which permits real-time measurements of protein binding events to immobilized AIM II receptor, lymphotoxin-β receptor (BIAcore sensorgram detects binding by changes in refractive index at the surface of the flow cell). A lymphotoxin-β receptor-Fc fusion protein was covalently immobilized to the BIAcore flow cell via amine groups using N-ethyl-N'-(dimethylaminopropyl)carbodiimide/N-hydroxysuccinimide chemistry. Various dilutions of AIM II-Flag and the negative control (BAP-Flag) conditioned serum-free media were applied to the lymphotoxin-β-receptor-derivatized flow cell at 5 µl/min for a total volume of 50 µl. The amount of bound protein was determined after washing the flow cell with HBS buffer (10 mM HEPES, pH 7.4, 150 mM NaCl, 3.4 mM EDTA, 0.005% Surfactant P20). The flow cell surface was regenerated by displacing bound protein by washing with 20 µl of 10 mM HCl.

TNFRI = biological target: T1, TNFRI; assay: 'in a similar assay'; format not described
Fas = biological target: T2, Fas; assay: 'in a similar assay'; format not described
DR3 = biological target: T3, DR3; assay: 'in a similar assay'; format not described
[5] = biological target: T7, LTβR on the surface of MDA-MB-231 and HT-29 cells (human, UniProt P36941 31-435); assay: summary of the FACS and cytotoxicity experiments
T7 construct: whole, on cells; The cells carry both LTβR and TR2; also called lymphotoxin β receptor
Description: (§4) FIGS. 8A–8M. Cell surface expression of the LTβR or TR2 by the FACS analyses using LTβR (FIGS. 8A–8D) or TR2 (FIGS. 8E–8H) mAb. […] FACS binding analyses of soluble AIM II protein alone (FIG. 8I) and blocking of a soluble AIM II protein binding by preincubation with the LTβR-Fc fusion protein (FIG. 8J) or TR2-Fc fusion protein (FIG. 8K) in MDA-MB-231 cells. FIG. 8L summarizes the surface expression of LTβR and TR2 in various cell lines. Effects of LTβR-Fc or TR2-Fc fusion protein to block the sAIM II-mediated cytotoxicity in HT-29 cells (FIG. 8M). […] Cells were incubated for five days and the viability of cells was determined by XTT assays.
(§5) A soluble tetrazolium/formazan (XTT) assay for cell growth in a 96-well plate was performed. Cells (2,000–4,000 cells/well) were grown in IMEM medium with 10% FBS or 1% FBS. After four to five days culture, XTT (1.0 mg/ml plus PMS at 1.53 mg/ml) was added to each well and incubated for four hours at 37° C. Absorbance at 450 nm was measured with the Dynatech Model MR700.
(§6) Cells were collected by trypsinization or aspiration, and centrifuged at 1500–2000 rpm for 5 min. The cell pellets were resuspended and washed in 5 ml ice-cold PBS twice. […] Fluorescence was analyzed by a FACscan flow cytometer (Becton Dickinson, Mountain View, Calif.).

[6] = biological target: T4, TR2 on the surface of MDA-MB-231 and …; assay: summary of the FACS and cytotoxicity experiments
Description: as §4, §5, §6

DR5 = biological target: T8, DR5 (UniProt O14763 56-210, limits assumed); assay: in vitro binding assay, not described
T8 construct: also called TRAIL-R2

DR4 = biological target: T5, DR4; assay: in vitro binding assay, not described
[7] = biological target: T6, TR6-(His), recombinant TR6 protein with …; assay: summary of the experiments of Example 13
[8] = biological target: T6, TR6-(His), recombinant TR6 protein with …; assay: flow cytometry on AIM II (LIGHT)-transfected HEK 293 EBNA cells, anti-poly(His)6 and FITC anti-mouse IgG
Description: as §1, §2

[9] = biological target: T9, BAP-Flag (negative control) (UniProt P00634 22-471 = phosphatase); assay: BIAcore, LTβR-Fc immobilized, conditioned serum-free media of CHO cells
T9 construct: Tested as conditioned serum-free medium of transfected CHO cells
T9 sequence (P00634 22-471): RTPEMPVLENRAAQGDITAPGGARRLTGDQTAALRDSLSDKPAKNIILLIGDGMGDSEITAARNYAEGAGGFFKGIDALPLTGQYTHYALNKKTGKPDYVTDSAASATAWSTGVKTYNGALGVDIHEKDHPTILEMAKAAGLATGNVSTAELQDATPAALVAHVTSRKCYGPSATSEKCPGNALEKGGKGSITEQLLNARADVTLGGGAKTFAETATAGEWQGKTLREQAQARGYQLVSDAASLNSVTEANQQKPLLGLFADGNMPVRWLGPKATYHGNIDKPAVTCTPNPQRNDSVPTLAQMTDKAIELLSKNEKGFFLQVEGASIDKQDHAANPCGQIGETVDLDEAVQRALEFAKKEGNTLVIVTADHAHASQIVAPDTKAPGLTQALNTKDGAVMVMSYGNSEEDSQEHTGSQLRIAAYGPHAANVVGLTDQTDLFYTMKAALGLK
Description: as §3

## B1
[1]
  binding result: binds

## B2
[2]
  binding result: binds

## B3
[3]
  binding result: binds
[4]
  binding result: binds
TNFRI
  binding result: no binding
Fas
  binding result: no binding
DR3
  binding result: no binding
[5]
  binding result: binds
[6]
  binding result: binds
DR5
  binding result: no binding
DR4
  binding result: no binding
[7]
  binding result: binds

## B4
[8]
  binding result: binds

## B5
[9]
  binding result: no binding
[2]
  binding result: binds
